Numbered stars: 1 amine (or outer) side, 2 acyl side, 3 side chain; on linkers, the order of the positions; unused ones are H or OH. Bridge positions count the residues as written; N and C are the ends. Side chains are listed from the residue outwards. Ends that are not written are not given here. * marks the point of attachment. C20 diacid = O=C(O)CCCCCCCCCCCCCCCCCCC(=O)*; γGlu = O=C(O)[C@H](CCC(=O)[*:2])N[*:1]; AEEA = NCCOCCOCC(=O)O
B1: N^ε1-[2-[2-[2-[[(4S)-4-carboxy-4-(19-carboxynonadecanoylamino)butanoyl]amino]ethoxy]ethoxy]acetyl]-[Arg17,Pro21,Pro27,His34]-h-amylin (peptide)
peptide: K([AEEA-γGlu-C20 diacid])CNTATCATQRLANFLRHSSPNFGAIPSSTNVGHNTY-NH2
modifications: disulfide 2-7; N-terminus assumed
SMILES: CC[C@H](C)[C@H](NC(=O)[C@H](C)NC(=O)CNC(=O)[C@H](Cc1ccccc1)NC(=O)[C@H](CC(N)=O)NC(=O)[C@@H]1CCCN1C(=O)[C@H](CO)NC(=O)[C@H](CO)NC(=O)[C@H](Cc1c[nH]cn1)NC(=O)[C@H](CCCNC(=N)N)NC(=O)[C@H](CC(C)C)NC(=O)[C@H](Cc1ccccc1)NC(=O)[C@H](CC(N)=O)NC(=O)[C@H](C)NC(=O)[C@H](CC(C)C)NC(=O)[C@H](CCCNC(=N)N)NC(=O)[C@H](CCC(N)=O)NC(=O)[C@@H](NC(=O)[C@H](C)NC(=O)[C@@H]1CSSC[C@H](NC(=O)[C@@H](N)CCCCNC(=O)COCCOCCNC(=O)CC[C@H](NC(=O)CCCCCCCCCCCCCCCCCCC(=O)O)C(=O)O)C(=O)N[C@@H](CC(N)=O)C(=O)N[C@@H]([C@@H](C)O)C(=O)N[C@@H](C)C(=O)N[C@@H]([C@@H](C)O)C(=O)N1)[C@@H](C)O)C(=O)N1CCC[C@H]1C(=O)N[C@@H](CO)C(=O)N[C@@H](CO)C(=O)N[C@H](C(=O)N[C@@H](CC(N)=O)C(=O)N[C@H](C(=O)NCC(=O)N[C@@H](Cc1c[nH]cn1)C(=O)N[C@@H](CC(N)=O)C(=O)N[C@H](C(=O)N[C@@H](Cc1ccc(O)cc1)C(N)=O)[C@@H](C)O)C(C)C)[C@@H](C)O
notes: also called compound 76
B2: N^ε1-[2-[2-[2-[[(4S)-4-carboxy-4-(19-carboxynonadecanoylamino)butanoyl]amino]ethoxy]ethoxy]acetyl]-[Arg17,Pro21,Pro27,Pro31,His35]-h-amylin (peptide)
peptide: K([AEEA-γGlu-C20 diacid])CNTATCATQRLANFLRHSSPNFGAIPSSTPVGSHTY-NH2
modifications: disulfide 2-7; N-terminus assumed
SMILES: CC[C@H](C)[C@H](NC(=O)[C@H](C)NC(=O)CNC(=O)[C@H](Cc1ccccc1)NC(=O)[C@H](CC(N)=O)NC(=O)[C@@H]1CCCN1C(=O)[C@H](CO)NC(=O)[C@H](CO)NC(=O)[C@H](Cc1c[nH]cn1)NC(=O)[C@H](CCCNC(=N)N)NC(=O)[C@H](CC(C)C)NC(=O)[C@H](Cc1ccccc1)NC(=O)[C@H](CC(N)=O)NC(=O)[C@H](C)NC(=O)[C@H](CC(C)C)NC(=O)[C@H](CCCNC(=N)N)NC(=O)[C@H](CCC(N)=O)NC(=O)[C@@H](NC(=O)[C@H](C)NC(=O)[C@@H]1CSSC[C@H](NC(=O)[C@@H](N)CCCCNC(=O)COCCOCCNC(=O)CC[C@H](NC(=O)CCCCCCCCCCCCCCCCCCC(=O)O)C(=O)O)C(=O)N[C@@H](CC(N)=O)C(=O)N[C@@H]([C@@H](C)O)C(=O)N[C@@H](C)C(=O)N[C@@H]([C@@H](C)O)C(=O)N1)[C@@H](C)O)C(=O)N1CCC[C@H]1C(=O)N[C@@H](CO)C(=O)N[C@@H](CO)C(=O)N[C@H](C(=O)N1CCC[C@H]1C(=O)N[C@H](C(=O)NCC(=O)N[C@@H](CO)C(=O)N[C@@H](Cc1c[nH]cn1)C(=O)N[C@H](C(=O)N[C@@H](Cc1ccc(O)cc1)C(N)=O)[C@@H](C)O)C(C)C)[C@@H](C)O
notes: also called compound 57
B3: N^ε1-[2-[2-[2-[[(4S)-4-carboxy-4-(19-carboxynonadecanoylamino)butanoyl]amino]ethoxy]ethoxy]acetyl]-[Arg17,Pro21,Pro27,Pro28,Pro34]-h-amylin (peptide)
peptide: K([AEEA-γGlu-C20 diacid])CNTATCATQRLANFLRHSSPNFGAIPPSTNVGPNTY-NH2
modifications: disulfide 2-7; N-terminus assumed
SMILES: CC[C@H](C)[C@H](NC(=O)[C@H](C)NC(=O)CNC(=O)[C@H](Cc1ccccc1)NC(=O)[C@H](CC(N)=O)NC(=O)[C@@H]1CCCN1C(=O)[C@H](CO)NC(=O)[C@H](CO)NC(=O)[C@H](Cc1c[nH]cn1)NC(=O)[C@H](CCCNC(=N)N)NC(=O)[C@H](CC(C)C)NC(=O)[C@H](Cc1ccccc1)NC(=O)[C@H](CC(N)=O)NC(=O)[C@H](C)NC(=O)[C@H](CC(C)C)NC(=O)[C@H](CCCNC(=N)N)NC(=O)[C@H](CCC(N)=O)NC(=O)[C@@H](NC(=O)[C@H](C)NC(=O)[C@@H]1CSSC[C@H](NC(=O)[C@@H](N)CCCCNC(=O)COCCOCCNC(=O)CC[C@H](NC(=O)CCCCCCCCCCCCCCCCCCC(=O)O)C(=O)O)C(=O)N[C@@H](CC(N)=O)C(=O)N[C@@H]([C@@H](C)O)C(=O)N[C@@H](C)C(=O)N[C@@H]([C@@H](C)O)C(=O)N1)[C@@H](C)O)C(=O)N1CCC[C@H]1C(=O)N1CCC[C@H]1C(=O)N[C@@H](CO)C(=O)N[C@H](C(=O)N[C@@H](CC(N)=O)C(=O)N[C@H](C(=O)NCC(=O)N1CCC[C@H]1C(=O)N[C@@H](CC(N)=O)C(=O)N[C@H](C(=O)N[C@@H](Cc1ccc(O)cc1)C(N)=O)[C@@H](C)O)C(C)C)[C@@H](C)O
notes: also called compound 55
B4: N^ε1-[2-[2-[2-[[(4S)-4-carboxy-4-(19-carboxynonadecanoylamino)butanoyl]amino]ethoxy]ethoxy]acetyl]-[Arg17,Pro21,Pro27,Pro29,Pro34]-h-amylin (peptide)
peptide: K([AEEA-γGlu-C20 diacid])CNTATCATQRLANFLRHSSPNFGAIPSPTNVGPNTY-NH2
modifications: disulfide 2-7; N-terminus assumed
SMILES: CC[C@H](C)[C@H](NC(=O)[C@H](C)NC(=O)CNC(=O)[C@H](Cc1ccccc1)NC(=O)[C@H](CC(N)=O)NC(=O)[C@@H]1CCCN1C(=O)[C@H](CO)NC(=O)[C@H](CO)NC(=O)[C@H](Cc1c[nH]cn1)NC(=O)[C@H](CCCNC(=N)N)NC(=O)[C@H](CC(C)C)NC(=O)[C@H](Cc1ccccc1)NC(=O)[C@H](CC(N)=O)NC(=O)[C@H](C)NC(=O)[C@H](CC(C)C)NC(=O)[C@H](CCCNC(=N)N)NC(=O)[C@H](CCC(N)=O)NC(=O)[C@@H](NC(=O)[C@H](C)NC(=O)[C@@H]1CSSC[C@H](NC(=O)[C@@H](N)CCCCNC(=O)COCCOCCNC(=O)CC[C@H](NC(=O)CCCCCCCCCCCCCCCCCCC(=O)O)C(=O)O)C(=O)N[C@@H](CC(N)=O)C(=O)N[C@@H]([C@@H](C)O)C(=O)N[C@@H](C)C(=O)N[C@@H]([C@@H](C)O)C(=O)N1)[C@@H](C)O)C(=O)N1CCC[C@H]1C(=O)N[C@@H](CO)C(=O)N1CCC[C@H]1C(=O)N[C@H](C(=O)N[C@@H](CC(N)=O)C(=O)N[C@H](C(=O)NCC(=O)N1CCC[C@H]1C(=O)N[C@@H](CC(N)=O)C(=O)N[C@H](C(=O)N[C@@H](Cc1ccc(O)cc1)C(N)=O)[C@@H](C)O)C(C)C)[C@@H](C)O
notes: also called compound 56
B5: N^ε1-[2-[2-[2-[[(4S)-4-carboxy-4-(19-carboxynonadecanoylamino)butanoyl]amino]ethoxy]ethoxy]acetyl]-[Arg17,Pro21,Pro27,Pro29,Pro31]-h-amylin (peptide)
peptide: K([AEEA-γGlu-C20 diacid])CNTATCATQRLANFLRHSSPNFGAIPSPTPVGSNTY-NH2
modifications: disulfide 2-7; N-terminus assumed
SMILES: CC[C@H](C)[C@H](NC(=O)[C@H](C)NC(=O)CNC(=O)[C@H](Cc1ccccc1)NC(=O)[C@H](CC(N)=O)NC(=O)[C@@H]1CCCN1C(=O)[C@H](CO)NC(=O)[C@H](CO)NC(=O)[C@H](Cc1c[nH]cn1)NC(=O)[C@H](CCCNC(=N)N)NC(=O)[C@H](CC(C)C)NC(=O)[C@H](Cc1ccccc1)NC(=O)[C@H](CC(N)=O)NC(=O)[C@H](C)NC(=O)[C@H](CC(C)C)NC(=O)[C@H](CCCNC(=N)N)NC(=O)[C@H](CCC(N)=O)NC(=O)[C@@H](NC(=O)[C@H](C)NC(=O)[C@@H]1CSSC[C@H](NC(=O)[C@@H](N)CCCCNC(=O)COCCOCCNC(=O)CC[C@H](NC(=O)CCCCCCCCCCCCCCCCCCC(=O)O)C(=O)O)C(=O)N[C@@H](CC(N)=O)C(=O)N[C@@H]([C@@H](C)O)C(=O)N[C@@H](C)C(=O)N[C@@H]([C@@H](C)O)C(=O)N1)[C@@H](C)O)C(=O)N1CCC[C@H]1C(=O)N[C@@H](CO)C(=O)N1CCC[C@H]1C(=O)N[C@H](C(=O)N1CCC[C@H]1C(=O)N[C@H](C(=O)NCC(=O)N[C@@H](CO)C(=O)N[C@@H](CC(N)=O)C(=O)N[C@H](C(=O)N[C@@H](Cc1ccc(O)cc1)C(N)=O)[C@@H](C)O)C(C)C)[C@@H](C)O
notes: also called compound 54

The binders below were run against T1, human calcitonin receptor (human, UniProt P30988 25-474) (assay: SPA competition vs 125I-calcitonin, membranes of BHK cells with human calcitonin receptor (Assay VII)).
T1 construct: whole, on cells; Assayed as cell membranes of BHK tk'ts 13 cells stably transfected with the human calcitonin receptor (Assay VII); also called hCTR; hCT
T1 sequence (looked up): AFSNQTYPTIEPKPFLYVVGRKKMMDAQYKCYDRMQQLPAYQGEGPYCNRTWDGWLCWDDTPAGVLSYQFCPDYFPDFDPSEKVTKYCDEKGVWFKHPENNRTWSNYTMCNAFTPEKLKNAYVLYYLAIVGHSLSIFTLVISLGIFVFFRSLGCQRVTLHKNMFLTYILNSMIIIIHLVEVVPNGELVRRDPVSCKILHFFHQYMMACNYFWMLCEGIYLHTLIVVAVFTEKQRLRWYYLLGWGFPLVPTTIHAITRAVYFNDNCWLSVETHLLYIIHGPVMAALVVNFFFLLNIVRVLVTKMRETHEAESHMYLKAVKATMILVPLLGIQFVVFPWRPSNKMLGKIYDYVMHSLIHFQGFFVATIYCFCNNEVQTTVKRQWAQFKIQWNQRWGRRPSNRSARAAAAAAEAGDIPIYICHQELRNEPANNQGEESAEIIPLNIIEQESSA
Outline: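 BHK hCTR membranes 35 ng/μL + SPA beads 0.05 mg/well; buffer 50 mM Hepes pH 7.4, 1 mM CaCl2, 5 mM MgCl₂, 0.1% OA, 0.02% Tween20. 120 min, 25° C., shaking. Scintillation count; IC50 by one-site binding competition.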
For B1, the IC50 was 17.2 nM.
Work on B2 yielded an IC50 of 15.3 nM.
Binder B3 has an IC50 of 2.17 nM.
With B4 the IC50 was 2.09 nM.
B5 gave an IC50 of 4.38 nM.
K([AEEA-γGlu-C20 diacid])CNTATCATQRLANFLRHSSPNFGAIPPSTPVGSNTY-NH2 (disulfide 2-7, also called compound 53) showed an IC50 of 5.38 nM.

Each binder was assayed against T1, human calcitonin receptor (assay: IC50 at hCTR divided by IC50 at hAmylin-R (SPA competition assays V and VII)).
Outline: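 IC₅₀ values were derived by one-site competition analysis of SPA counts. Cell membranes (35 ng/μL) with SPA beads were incubated with test compounds for 120 min at 25° C in Hepes buffer, pH 7.4, containing CaCl2, MgCl₂, OA and Tween20.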
For B1, the “Ratio hCT/hAmylin binding” value was 80.
B2 was tested, and the “Ratio hCT/hAmylin binding” value was 133.
With B3 the “Ratio hCT/hAmylin binding” value was 51.8.
For B4, the “Ratio hCT/hAmylin binding” value was 42.6.
B5 was tested, and the “Ratio hCT/hAmylin binding” value was 146.
K([AEEA-γGlu-C20 diacid])CNTATCATQRLANFLRHSSPNFGAIPPSTPVGSNTY-NH2 (disulfide 2-7, also called compound 53) was tested, and the “Ratio hCT/hAmylin binding” value was 104.

Source: US20140087995A1 (published 2014)
